Experiment: label from the status in PepcDB records

Sequence | protein production
MSLKTTTSSTPSDRITWVRISSCYLPLATPISDAKVLTGRQKPMTEIAILFAEIETAGGHQGLGFSYSKRAGGPGQFAHAREIAPALIGEDPSDIAKLWDKLCWAGASAGRSGLSTQAIGAFDVALWDLKAKRAGLSLAKLLGSYRDSVRCYNTSGGFLHTPIDQLMVNASASIERGIGGIKLKVGQPDGALDIARVTAVRKHLGDAVPLMVDANQQWDRPTAQRMCRIFEPFNLVWIEEPLDAYDHEGHAALALQFDTPIATGEMLTSAAEHGDLIRHRAADYLMPDAPRVGGITPFLKIASLAEHAGLMLAPHFAMELHVHLAAAYPREPWVEHFEWLEPLFNERIEIRDGRMLVPTRPGLGLTLSGQVKAWTREEAQVGTRPEGHHHHHH | not failed
MLIAILLLLLSIFNIFIGKKVKDKNLAHLLSGFDKEKDDLEYVSSVLGNTFKWIGNLGVIITAIYLILINSISVGLYLICYVGVIILFTVNLTFKTDRHRRSKLKASK | failed
AITLTCDEIEQAFLHDHIFNYYQPQFDFRSGAMVGVEALVRYEHPTHGMLSPAVFLPLIEQCGLHEKLFLTVLEKSVSALASIGADLQLSVNISQRNLQHSICDPILAICERYGFPASKLTLEMTEHEVYNGTPTSLANLARLRMYGVGLSIDDFGTGYASLGQLAQLPFTELKIDRSFVHDLATNYKHQQLTNMCLLLAQSLGLHCVVEGVENEETWQYLRQLGVDTCQGYYAAKP | failed
MKKLAIVIPAYKVDFFETVLFSLAQQTCKDFTVYIGEDCSRDDFKSLIEQYSKQLDIVYRRFEVNFGGHDLVAQWNRCIQLTQNEPWLWLFSDDDIMGPRCVEYFFNTIAIDNGAFDIYHFDVKIVDCENQIVRIPTVYPSVIDSETFYRRKASARLDSFVVEYIFLRDIYNCTGGFQHFDLAWGSDIATWVKIGADKGIKTISGDYVYWRKSKKNITPNMDNKMVLRKLTADIEFTHWINEFFHKSSVYRFTKYAFFRLVVHYSQAISKSQIRLLLDKAVGKNIISFNDAFIINWTYRFIQLAKRVKDVLYFLEHHHHHH | not failed
MSTGQAPEKSNFSQRCSLLSRYLKEKGSFGNINMGLARKSDLELAGKFDLKGQQNVIKKVETSETRPFKLIQKFSIGEASTSTEDKAIYIDLSEPAKVAPESGNSQLTIFFGGKVMVFNEFPEDKAKEIMEVAKEANHVAVDSKNSQSHMNLDKSNVVIPDLNEPTSSGNNEDQETGQQHQVVERIARRASLHRFFAKRKDRAVARAPYQVNQHGSHLPPKPEMVAPSIKSGQSSQHIATPPKPKAHNHMPMEVDKKEGQSSKNLELKL | failed
MTINWIQAAILGLFACLCSNSCMAGQAVGNYTIGRPLVGGLVCGIILGDLKLGIACGVAMQLVYIALVTPGGTVSADVRAISYIGIPLAMVAISTKGLDPLGGSAADLAKSVGTLVGTIGTVLFYSVAALNLVWQSFGWKDIKKGKLDHLYAINFGWPWISHLLFSFLPTVILTYFGATAVTAMRDALPMDGLAMKTLFTVGGMLPCVGIAILLRQIVNKNIDFVPFFVGFTLAASLKLNLVSITIIALLFAVIFYKIALIKNNTKLVDSTGSLTNDDEEEDI | failed
MPMHFLLFAVVCSVLVSVLLKLAPRHRIDVFQAITWNYATAALLAWLILHPALDTLRSTTAPWVALLLLAVALPSIFLVLARSVAVAGIVRTDVAQRLSLVLSLAAAFTVFGEPVNGWKLAGLALGMVAIACIVRRPRQHVATDPLPSTTGLPWLVGVWMGFALIDLLLKHIAQAGTPSLTSLTLCFALAFLLMLGVQSVRWARGARPSTRSMLAGVLLGALNFGNILCYVRAHQVLPHSPATVFASMNLGVVVLGALVGKLGFAERLGLRGWLGLALAAPAIAAIAWGIRLG | failed
MIRVASLIKAMSDTQLQIAQGASPLTGLPGNSAIEQEIKRRLNSGNAFGMIYADLNQFKAFNDTYGFQYGDSIIKLLGKILMQDSLKADDLAFVGHVGGDDFIILTTQNVTKTLGETILLSFQEQLSAMQGAQDLSLALAGLIIYPHTAWTPATLSERIAAVKREAKKAHCNYFLLRELEHHHHHH | failed
GMEGLVMNTRRALFADWRVREAMLLAFDFDLINRTLTGGAEPRIASYFSNSALGMEAGAPATGRERALLEPFAADLLPGTLDGYALPATHGASNRGNLRKAARLLSEAGWRIEDGMLEGPGGTPFAFEILLPQGADAMIAASIIYRQALTRLGISARITTVDPAQFKQRVDNQDFDMTSFLRSLTLSPGNEQLLYWSAEDKDLPGSRNLMGMESPAAEAVIRHMLATDDAEEFQASVRALDRVLTAGRYVIPMWYSR | failed
MVHDTFMKMPEVRRRRQPTHVLVAGGNQGLGNMTAFLRAARTSTLFRYSVLCGANKQLYHEIASWQLPHIRPLPYINSPEEMNQLYDEADAVITKPGGVTISELLHKRIPIFTIDCLPGQERINWQYLRRNGLIYHLAEPGNGERKMIRLLTDDVEKNRFFRRVSDYFAGVEKTGLEHHHHHH | failed
GERPEPVFDAFADRLAEVAAVPYAMVNFIDENRQFFAGLHAPDGTGSGGRPAADGAEPPDVRRYMARDYGFCPHVVVRRKALVLEDVCDYPRFAGNPVVDEIGIRSYLGAPLIDRTGIALGTICVVDIEPRPWGRAGLETIKALAAELVEQIGRRESGGI | failed
MDLVLDLLATVSRWSRSNLSEISLALVGCLLVLFGTDVKAWAEQRLGGLAGALRVPFMALMVMIGSGAALIYATPWVVKGLSQFNNYALAPVLLVVLVLIGVVADRRG | failed
MEIEFMTNVAVRRPNLNDVDELYLFFRIVITNTYKNEGLSQSLDDIENEINSKKQYLKSDFDSNGEGRYFLLAIDTSNDKIIGTIEIGPASTLINSCTGGVLKNLYEIGTVFILPEYQRKGIGSLLLHTMFLTLLSRGITEYCLDSGYKNAQSIWTKKFGKPSYVLKDYWGESSDHMIWKKSLHDTPIIFEL | failed
MGAAKNIWALANAEDAANDAEQIPYSSFVVDTSLPLPLMIPRIIELCKDLFKNWGELDDSLFSVERVSGGITNLLLKVSVKEDTNKEVSVTVRLYGPNTEYVINREREILAIKYLSAAGFGAKLLGGFGNGMVQSFINARTLEPSDMREPKIAAQIARELGKFHKVDIPGSKEPQLWVDILKFYEKASTLTFEEPDKQKLFETISFEELHKEIIELREFTGLLNAPVVFAHNDLLSGNFMLNDEEEKLYLIDFEYGSYNYRGFDIGNHFNEYAGYDCDYSLYPSKEEQYHFIKHYLQPDKPDEVSIAEVESVFVETDAYKLASHLYWAIWAIIQARMSPIEFEYLGYFFLRYNEYKKQKPLTFSLVTSHLSASL | failed
MKEGKWFASANNQNKFLDPRERGNILNYLKVCLLLARAVRRMHAAGLCHSDLSYKNVLIDPEQGHACIIDVDGLVVPGKFPPDVVGTPDFIAPEVVKTSHLLKEDPQRILPNITTDRHALSVLIYMYLFYRHPLRGGKIHDMDDEVRDESLAMGERALFIEHPTDRSNAVKLNQVKPSSLPWADPQKVPYTIMGPYLTQLFEKAFIDGLHDPSKRPTADEWETALVKTVDLIQPCQNTACEQKWYVFSGKTKPVCPYCLEHHHHHH | failed
MDKPVLKDSMRLFEQLGRVKSRSMFGGFGIFVDETMFALVVNDTLHIRADDATIEKYKQQGYEPYVYKKRGFPVVTKYYALPEDCWSHPDSILNEVRAALEVAKA | failed
MAAASPLRDCQAWKDARLPLSTTSNEACKLFDATLTQYVKWTNDKSLGGIEGCLSKLKAADPTFVMGHAMATGLVLIGTGSSVKLDKELDLAVKTMVEISRTQPLTRREQLHVSAVETFANGNFPKACELWEQILQDHPTDMLALKFSHDAYFYLGYQEQMRDSVARIYPFWTPDIPLSSYVKGIYSFGLMETNFYDQAEKLAKEALSINPTDAWSVHTVAHIHEMKAEIKDGLEFMQHSETFWKDSDMLACHNYWHWALYLIEKGEYEAALTIYDTHILPSLQANDAMLDVVDSCSMLYRLQMEGVSVGQRWQDVLPVARKHSRDHILLFNDAHFLMASLGAHDPQTTQELLTTLRDASESPGENCQHLLARDVGLPLCQALVEAEDGNPDRVLELLLPIRYRIVQLGGSNAQRDVFNQLLIHAALNCTSSVHKNVARSLLMERDALKPNSPLTERLIRKAATVHLMQ | failed
PKTGPTMTKELVFSSNIGQHDLDTKSKQIQQWIEKKYHVQVTIKRRKDAEQSEEETEEIFNQILQTMPDIATFSSRPKAIRGGTASMCVFRHLSKKEEK | not failed
